Experimental data as given in patent US20250179187A1 (REJUVERON SENESCENCE THERAPEUTICS, published 2025).
Where two headings read alike, the source gives them in different places.

B1: VH0/VK0 chimeric antibody (hIgG1 backbone) (antibody, V domains shown)
VH: QVQLQQSGAELVRPGTSVKVSCKASGYAFSNYFIEWVKQRPGQGLEWIGLNIPGSGGSNYAEKFKGKATLTADKSSSTAYMQLSSLTSEDSAVYFCARRRLPPDWYFDVWGTGTTVTVSS
VL: DVVMTQTPLSLPVSLGDQASISCRSSQSLVHSDGNTYLHWYLQKPGQSPKLLIYKVSNRFSGVPDRFSGSGSGTDFTLKISRVEAEDLGVYFCSQSTHVPWTFGGGTKLEIK
notes: Mouse variable regions on human IgG1 backbone, expressed in CHO cells; also called chimeric anti-PDL2 lead mAb VH0/VK0
B2: VH8/VK2 (antibody, V domains shown)
VH: QVQLVQSGAEVKKPGSSVKVSCKASGYAFSNYFIEWVKQPPGKGLEWIGLNIPGSGGSNYAEKFKGRATITADKSTSTAYMELSSLRSEDTAVYYCARRRLPPDWYFDVWGQGTTVTVSS
VL: DVVMTQSPLSLPVTLGQPASISCRSSQSLVHSDGNTYLHWYQQKPGQPPKLLIYKVSNRFSGVPDRFSGSGSGTDFTLKISRVEAEDVGVYYCSQSTHVPWTFGGGTKVEIK
notes: hIgG1 backbone, CHO expressed
B3: VH0/VK0-mIgG1 (parental murine monoclonal antibody VHP/VKP on mIgG1 backbone) (antibody, V domains shown)
VH: QVQLQQSGAELVRPGTSVKVSCKASGYAFSNYFIEWVKQRPGQGLEWIGLNIPGSGGSNYAEKFKGKATLTADKSSSTAYMQLSSLTSEDSAVYFCARRRLPPDWYFDVWGTGTTVTVSS
VL: DVVMTQTPLSLPVSLGDQASISCRSSQSLVHSDGNTYLHWYLQKPGQSPKLLIYKVSNRFSGVPDRFSGSGSGTDFTLKISRVEAEDLGVYFCSQSTHVPWTFGGGTKLEIK
notes: Murine IgG1 backbone; also called parental mouse antibody

Columns and labels:
[1] = molecular target: T1, human PD-L2 on CHO-K1 cells of the Promega PD-1/PD-L2 blockade bioassay (human, UniProt Q9BQ51 20-273); assay: cell-based or functional assay
T1 sequence (looked up): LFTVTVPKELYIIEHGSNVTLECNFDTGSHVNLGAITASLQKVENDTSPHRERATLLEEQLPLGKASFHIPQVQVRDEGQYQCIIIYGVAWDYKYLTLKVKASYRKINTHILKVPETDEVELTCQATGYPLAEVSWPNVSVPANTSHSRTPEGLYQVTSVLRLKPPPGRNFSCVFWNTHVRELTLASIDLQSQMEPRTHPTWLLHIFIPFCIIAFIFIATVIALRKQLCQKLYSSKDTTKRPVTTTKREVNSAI

[2] = molecular target: T2, mouse PD-L2 on CHO-K1 cells over-expressing mPD-L2 GFP (mouse, UniProt Q9WUL5 20-247); assay: flow cytometry on CHO-K1 cells overexpressing mPD-L2, mean fluorescence
T2 construct: whole, on cells; also called cellular mPD-L2; not shown: GFP of the mPD-L2 GFP construct
T2 sequence (looked up): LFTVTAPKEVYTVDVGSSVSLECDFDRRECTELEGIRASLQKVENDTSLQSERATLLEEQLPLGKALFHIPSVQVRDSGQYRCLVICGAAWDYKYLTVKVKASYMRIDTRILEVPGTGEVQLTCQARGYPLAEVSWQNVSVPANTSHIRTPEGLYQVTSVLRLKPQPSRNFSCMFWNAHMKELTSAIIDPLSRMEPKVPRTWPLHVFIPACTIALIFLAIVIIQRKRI
Procedure: (§1) CHO-K1 cells over-expressing either hPDL2-GFP or mPD-L2 GFP were detached, washed in phosphate buffered saline (PBS) and adjusted to a cell concentration of around 1 million cells in cytometry buffer (CB, PBS containing 1% […]). Around 80,000 cells were then distributed into a round-bottom 96 well plate and the plate was centrifuged for 3 minutes at 400 g at 4° C. and supernatant discarded. Appropriate antibody concentrations in 50 microliter volumes were added to the wells and incubated for 30 minutes at 6-8° C. The plate was washed 3 times with PBS and relevant secondary antibodies (either AlexaFluor 647 Goat anti-Mouse IgG (H+L) (Invitrogen A21235/lot 1915807) or AlexaFluor 647 Goat anti-Rat IgG (H+L) (Invitrogen A21247/lot 1921562) were added for 30 minutes at 4° C. Cells were again washed with PBS two times, resuspended in CB and analyzed in either the Sony ID7000 Spectral Cell analyzer (Sony) or the GALLIOS Flow Cytometer (Beckman-Coulter) was used. EC₅₀ was calculated using the Sigmoidal 4PL equation of the GraphPad Prism-9 software.

[3] = molecular target: T3, recombinant human PD-L2 (human PD-L2 antigen) (human, UniProt Q9BQ51 20-219, limits assumed); assay: SPR (Biacore 8K), single cycle kinetics, antibody in culture supernatant, human PD-L2 antigen
T3 construct: The Biacore analyte and the ELISA antigen are only called human PD-L2 antigen / recombinant hPD-L2; Whole entry named; also called hPD-L2; recombinant hPD-L2
T3 sequence (looked up): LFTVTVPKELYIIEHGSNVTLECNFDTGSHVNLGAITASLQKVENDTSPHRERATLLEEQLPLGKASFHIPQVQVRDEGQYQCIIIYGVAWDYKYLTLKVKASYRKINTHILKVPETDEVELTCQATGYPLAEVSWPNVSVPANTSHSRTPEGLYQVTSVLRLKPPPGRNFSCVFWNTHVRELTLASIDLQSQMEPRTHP
From the text: Table 2: Single cycle kinetic parameters of chimeric (VH0/VK0) and humanized variants (tested as cell culture supernatants) binding to human PD-L2 antigen as determined using the Biacore 8K. As used herein, the term “KD” is intended to refer to the dissociation equilibrium constant of a particular antibody-antigen interaction, ka is the binding rate constant and kd is the dissociation rate constant. The binding affinity of antibodies of the disclosed invention may be measured or determined by standard antibody-antigen assays. The relative KD was calculated by dividing the KD of the humanized variant by that of the VH0/VK0 assayed in the same experiment.

[4] = molecular target: T1, human PD-L2 on CHO-K1 cells of the …; assay: cell-based or functional assay; remark: listed apart in the source
[5] = molecular target: T4, human PD-L2 on CHO-K1 cells over-expressing hPDL2-GFP (human, UniProt Q9BQ51 20-273); assay: flow cytometry on CHO-K1 cells expressing hPD-L2, median fluorescence
T4 construct: whole, on cells; also called cellular hPD-L2; cellular PDL2; not shown: GFP of the hPDL2-GFP construct
T4 sequence (looked up): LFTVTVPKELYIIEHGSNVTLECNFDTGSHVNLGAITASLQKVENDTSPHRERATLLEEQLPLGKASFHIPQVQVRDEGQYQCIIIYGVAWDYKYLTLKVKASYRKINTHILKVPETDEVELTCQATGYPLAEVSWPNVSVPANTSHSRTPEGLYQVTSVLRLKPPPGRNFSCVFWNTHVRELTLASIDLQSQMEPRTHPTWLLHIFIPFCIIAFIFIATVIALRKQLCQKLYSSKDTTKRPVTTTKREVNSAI
Procedure: as §1

[6] = molecular target: T4, human PD-L2 on CHO-K1 cells …; assay: binding to cellular PDL2 (FIG. 1A by the text; flow cytometry on CHO-K1 cells expressing hPD-L2)
Procedure: as §1

[7] = molecular target: T5, recombinant mouse PD-L2 (Sino Biological, cat 50804-M08H-B) (mouse, UniProt Q9WUL5 20-219); assay: ELISA on recombinant mPD-L2 according to the legend; the y axis on the sheet reads 'Mean fluorescent unit'
T5 construct: Bought protein; also called recombinant mPD-L2; recombinant mPDL2
T5 sequence (looked up): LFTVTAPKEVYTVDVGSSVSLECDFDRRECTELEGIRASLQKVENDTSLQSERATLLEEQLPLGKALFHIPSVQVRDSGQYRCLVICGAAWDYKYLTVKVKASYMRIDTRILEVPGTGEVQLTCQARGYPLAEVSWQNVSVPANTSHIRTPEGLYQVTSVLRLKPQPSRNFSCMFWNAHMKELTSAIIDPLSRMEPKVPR

[8] = molecular target: T4, human PD-L2 on CHO-K1 cells …; assay: flow cytometry blocking assay: antibody titrated against recombinant hPD-1 (constant 15 micrograms/mL) binding to CHO-K1 cells expressing hPD-L2; signal falls with the antibody; column head on the sheet is EC50
Procedure: CHO-K1 cells over-expressing either hPDL2-GFP were detached, washed in phosphate buffered saline (PBS) and adjusted to a cell concentration of around 1 million cells in CB. Around 80,000 cells were then distributed into a round-bottom 96 well plate and the plate was centrifuged for 3 minutes at 400 g at 4° C. and supernatant discarded. A constant concentration of ligand recombinant hPD-1 ligand (Sino Biological 10377-H08H/lot LC13JA2207) of 15 micrograms/mL was incubated with respective concentration of antibody, added to the cells and incubated for 30 min at 6-8° C. Cells were washed 3 times in PBS and then incubated with a rabbit polyclonal anti-His (Abcam Ab1187/lot GR3369369-1) in CB and subsequently washed three times in PBS. Cells were then incubated with a labeled anti-rabbit secondary (AlexaFluor 647 Goat anti-Rabbit IgG (H+L) (Invitrogen A21244/lot 1910774) for 15 minutes at 4° C., washed two times in PBS, resuspended in CB and analyzed in the Sony ID7000 Spectral Cell analyzer (Sony).

Binder | EC50 (PD-1/PD-L2 blockade reporter assay, luminescence) [1] [pM] | EC50 [2] [pM] | Kd [3] [pM] | Relative KD (KD of variant / KD of VH0/VK0) [3] | koff [3] [s⁻¹] | kon [3] [M⁻¹ s⁻¹] | EC50 (PD-1/PD-L2 blockade reporter assay, luminescence) [4] [pM] | EC50 [5] [pM] | EC50 [6] [pM] | EC50 (read off the curve) [7] [pM] | EC50 [8] [pM]
B1 | 640 | 160 | 35.8 | 1 | 9.72e-05 | 2.72e+06 |  |  |  |  | 
B2 | 1290 | 230 | 52.8 | 1.47 | 0.000121 |  |  |  |  |  | 
B3 |  |  |  |  |  |  | 1110 | 538 | 219 | ~500 | 600
